Here are results for 1 substance from patent US9872887B2, “Extracellular matrix-binding synthetic peptidoglycans” (Purdue Research Foundation, priority 2013, dated 2018).

The data set in a line: Rheological measurements on bovine vitreous. The following applies: trypsin treated vs no treatment and PBS buffer; FIG. 3A. The source says:
The synthetic peptidoglycans according to the present disclosure can be tested as follows. Viscoelastic properties can be measured using a rheometer, for example the TAInstruments ARG2 rheometer. A cone and plate geometry or a parallel plate geometry can be used. Vitreous humor (e.g., bovine) can be placed within the geometry. The temperature can be controlled and frequency sweeps can be performed from ranges of about 0.1 Hz to about 100 Hz (e.g., 1 Hz) and storage, loss, and complex modulus can be measured at an oscillatory shear stress between about 0.1 Pa and about 10 Pa (e.g., 10 Pa). Temperature: 37° C.

Regarding trypsin, the “viscosity of bovine vitreous” value is recorded as “lower viscosity”.
